The target in assay [1] is T1, recombinant human CD3 epsilon/delta heterodimer (human, UniProt P07766 23-126; P04234 22-105).
T1 construct: Recombinant protein in solution (200-50 nM) in the Octet assay; also called hCD3 E/D; human CD3E/D
The assay can be described thus: Octet BLI, mAb on FAB2G sensor, hCD3 E/D 200-50 nM; R^2 0.98. (In BLI a coated tip is dipped into the sample, and binding shifts an interference pattern.)
Experimental: (§1) Samples were evaluated by flow cytometry analysis against Jurkat and human Pan-T cells (FIG. 1B) as well as by Octet against recombinant human CD3 proteins to evaluate apparent affinities and binding off-rates (Table 6, infra).

In assay [2] the target is T2, recombinant human CD3 epsilon/gamma heterodimer (human, UniProt P07766 23-126; P09693 23-116).
T2 construct: Recombinant protein in solution (200-50 nM) in the Octet assay; also called hCD3 E/G
The assay can be described thus: Octet BLI, mAb on FAB2G sensor, hCD3 E/G 200-50 nM; R^2 0.99.

Assay [3] addresses T2, recombinant human CD3 epsilon/gamma …. The assay is described as follows: Octet BLI, mAb on FAB2G sensor, hCD3 E/G 200-50 nM; R^2 0.98.
Experimental: as §1
Assay [4] deals with T1, recombinant human CD3 epsilon/delta …. The assay is described as follows: Octet BLI, mAb on FAB2G sensor, hCD3 E/D 200-50 nM; R^2 0.99.
Assay [5] shares this target. The assay can be described thus: Octet BLI, mAb on FAB2G sensor, hCD3 E/D 200-50 nM; R^2 1.00.
For assay [6], the target named is T3, CD33 on KILR-HL60 cells (UniProt P20138 18-364, limits assumed).
T3 construct: whole, on cells; Target of the gemtuzumab arm; also called CD33 expressing cells
The assay can be described thus: flow cytometry on KILR-HL60 (CD33 expressing) cells, antibody at 1 ug/ml.

The target in assay [7] is T3, CD33 on KILR-HL60 cells. The assay is described as follows: flow cytometry on KILR-HL60 (CD33 expressing) cells, antibody at 10 ug/ml. On the technique in general: Flow cytometry measures light scatter and fluorescence of single cells or particles in a stream.

Residue numbers refer to the chain shown, from its start.

T2 sequence (P07766 23-126, chain 1 of 2): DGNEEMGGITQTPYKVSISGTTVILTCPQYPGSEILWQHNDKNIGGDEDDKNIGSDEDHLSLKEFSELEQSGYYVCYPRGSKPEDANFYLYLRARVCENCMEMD
T2 sequence (P09693 23-116, chain 2 of 2): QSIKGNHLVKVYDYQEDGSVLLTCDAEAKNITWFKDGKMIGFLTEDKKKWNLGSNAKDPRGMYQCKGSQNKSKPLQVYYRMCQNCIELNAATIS
T1 sequence (P07766 23-126, stated change not applied, chain 1 of 2): as the sequence (P07766 23-126, chain 1 of 2) above
T1 sequence (P04234 22-105, stated change not applied, chain 2 of 2): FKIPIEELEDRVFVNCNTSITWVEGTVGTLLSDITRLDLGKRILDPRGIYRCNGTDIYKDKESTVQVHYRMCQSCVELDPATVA
T3 sequence (P20138 18-364 limits assumed): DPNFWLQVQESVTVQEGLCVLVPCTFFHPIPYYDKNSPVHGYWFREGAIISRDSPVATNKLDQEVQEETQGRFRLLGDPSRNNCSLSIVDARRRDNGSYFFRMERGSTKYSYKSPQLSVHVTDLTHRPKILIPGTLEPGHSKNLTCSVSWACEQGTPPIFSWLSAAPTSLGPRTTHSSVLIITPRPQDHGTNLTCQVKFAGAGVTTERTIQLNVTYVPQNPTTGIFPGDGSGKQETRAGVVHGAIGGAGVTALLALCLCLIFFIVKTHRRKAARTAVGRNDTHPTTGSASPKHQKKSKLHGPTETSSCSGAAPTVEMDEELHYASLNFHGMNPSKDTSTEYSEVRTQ

B1: ABL-CD3-57 (antibody, V domains shown)
VH: EVQLVESGGGLVKPGGSLRLSCAASGFTFSSYTMNWVRQAPGKGLEWVSSISTSSRYIYYTDSVKGRFTISRDDAKNSLYLQMNSLRAEDTAVYYCTRNWGYDVFDIWGQGTMVIVSS
VL: QPVLTQPSSHSASSGASVRLTCMLSSGFSVGDFWIRWYQQKPGNPPRYLLYYHSDSNKGQGSGVPSRFSGSNDASANAGILRISGLQPEDEADYYCGTWHSNSKTQVFGGGTKLTVL
notes: Chimeric hybridoma mAb: human V, CH1, upper hinge; mouse middle hinge, CH2, CH3
The Kd is the equilibrium constant for the complex coming apart. Usually koff stands for the first-order rate constant of dissociation. One may read the kon as the second-order rate constant of association. Take B1: in assay [1], the equilibrium dissociation constant (Kd) was determined as 4.29 nM, the Response came to 0.49, the koff came out at 0.000277 s⁻¹ and the on-rate (kon) was 64700 M⁻¹ s⁻¹. Also, in assay [2], the dissociation constant Kd turned out to be 3.97 nM, the Response is 0.54, the koff was determined as 0.00026 s⁻¹ and the association rate constant (kon) was 65400 M⁻¹ s⁻¹.

B2: ABL-CD3-34 (antibody, V domains shown)
VH: EVHLVESGGGLVKPGGSLRLSCAASGFTFSRYSMNWVRQAPGKGLEWVSSISRSSSYIYYADSVKGRFTISRDNAKNSLYLQMNSLRAEDTAVYYCAREPRTLGMDYWGQGILVTVSS
VL: NFMLTQPHSVSESPGKTVTISCTRSSGSIASNYVQWYQQRPGSSPTTVIYEDNQRPSGVPDRFSGSIDSSSNSASLTISGLKTEDEADYYCQSYDSSNRVFGGGTKLTVL
notes: as for B1
Consider B2, for which, in assay [1], the equilibrium dissociation constant (Kd) was 9.01 nM, the Response amounted to 0.93, the off-rate (koff) turned out to be 0.00211 s⁻¹ and the on-rate constant (kon) stood at 234000 M⁻¹ s⁻¹. In assay [3], the dissociation constant (Kd) was found to be 9.82 nM, the Response was determined as 0.89, the koff stood at 0.00196 s⁻¹ and the kon came to 199000 M⁻¹ s⁻¹.

B3: ABL-CD3-63 (antibody, V domains shown)
VH: QVQLQESGPGLVKPSETLSLTCTVSGGSISSYYWSWIRQPAGKGLEWIGRIYTSGSTKYNPSLKSRVTMSVDTSKNQFSLKLISVTAADTAVYFCARERIRDLYFDYWGQGTLVTVSS
VL: B2 VL with S25T, D88A, S96R
notes: as for B1
For the molecule B3, in assay [4], the dissociation constant Kd is 11.5 nM, the Response came to 0.89, the off-rate constant (koff) amounted to 0.00145 s⁻¹ and the kon is 127000 M⁻¹ s⁻¹. Moreover, in assay [3], the dissociation constant Kd amounted to 90.4 nM, the Response was determined as 0.34, the off-rate constant (koff) worked out at 0.0182 s⁻¹ and the association rate constant (kon) worked out at 202000 M⁻¹ s⁻¹.

B4: ABL-CD3-51 (antibody, V domains shown)
VH: EVQLVESGGGLVKPGGSLRLSCAASGFTFSSYSMNWVRQAPGKGLEWVSSISRSSSYIYYADSVKGRFTISRDNAKNSLYLQMNSLRAEDTAVYYCARERWELLYFDYWGQGTLVTVSS
VL: B2 VL
notes: as for B1
As to B4, in assay [1], the Kd was 77.1 nM, the Response was determined as 0.21, the koff was 0.0188 s⁻¹ and the on-rate constant (kon) is 244000 M⁻¹ s⁻¹. In assay [3], the dissociation constant (Kd) came to 233 nM, the Response was determined as 0.06, the koff was found to be 0.163 s⁻¹ and the on-rate (kon) is 699000 M⁻¹ s⁻¹.

B5: ABL-CD3-60 (antibody, V domains shown)
VH: EVQLVESGGGLVKPGGSLRLSCAASGFTFSIYSMNWVRQAPGKGLEWVSSISSGSSYIYYADSVKGRFTISRDNAKSSLFLQMNSLRAEDTAVYYCAREKRELLFDYWGQGTLVTVSS
VL: B2 VL with S69R
notes: as for B1
Take B5: in assay [4], the Kd turned out to be 231 nM, the Response came to 0.1, the koff turned out to be 0.0962 s⁻¹ and the kon amounted to 417000 M⁻¹ s⁻¹. For the same molecule, in assay [3], the dissociation constant (Kd) was determined as 90.7 nM, the Response worked out at 0.07, the koff was 0.0583 s⁻¹ and the kon was 642000 M⁻¹ s⁻¹.

B6: ABL-CD3-62 (antibody, V domains shown)
VH: EVQLVESGGGLVKPGGSLRLSCAASGFTFSSYSMNWVRQAPGKGLEWVSSISRSSGYIFYADSVKGRFTISRDNAKNSLYLQMNSLRAEDTAVYYCVRERVGAGFDYWGQGTLVTVSS
VL: B2 VL with T19A, T47A, S75F
notes: as for B1
In the case of B6, in assay [1], the dissociation constant Kd came to 34 nM, the Response came to 0.56, the koff came out at 0.00765 s⁻¹ and the on-rate (kon) is 225000 M⁻¹ s⁻¹. For the same molecule, in assay [3], the Kd stood at 23.8 nM, the Response amounted to 0.69, the koff was 0.00391 s⁻¹ and the kon came out at 164000 M⁻¹ s⁻¹.

B7: ABL-CD3-49 (antibody, V domains shown)
VH: EVQLVESGGGLVKPGGSLRLSCSASGFTFSTYTMNWVRQAPGKGLEWVSSISKSSSYIYYTDSVKGRFTISRDNAKNSLYLQMNSLRAEDTAVYYCARERRTLAFDIWGQGTMVTVSS
VL: B2 VL with P56S, S93C, S96R
notes: as for B1
Consider B7, for which, in assay [4], the dissociation constant (Kd) is 6.52 nM, the Response stood at 0.93, the off-rate (koff) came to 0.00131 s⁻¹ and the on-rate (kon) is 200000 M⁻¹ s⁻¹. Further, in assay [3], the Kd is 11.4 nM, the Response amounted to 0.82, the koff stood at 0.00253 s⁻¹ and the kon worked out at 223000 M⁻¹ s⁻¹.

B8: ABL-CD3-59 (antibody, V domains shown)
VH: B4 VH with A23T, F29L, I51L, S56N, D62V
VL: B2 VL with K82Q, S96N, N98I
notes: as for B1
Turning to B8, in assay [5], the Kd was 12.7 nM, the Response is 0.81, the koff was determined as 0.00105 s⁻¹ and the on-rate (kon) turned out to be 83100 M⁻¹ s⁻¹. In addition, in assay [2], the Kd was found to be 43.3 nM, the Response is 0.58, the koff turned out to be 0.00487 s⁻¹ and the on-rate (kon) turned out to be 113000 M⁻¹ s⁻¹.

B9: ABL-CD3-41 (antibody, V domains shown)
VH: EVQLVESGGGLVKPGGSLRLSCAASGFTFSSYSMNWVRQAPGKGLEWVSSVNSRGSYIYYADSVKGRFTISRDNAKDSLYLQMNSLRADDTAVYYCARDRRELLLDYWGQGTLVTVSS
VL: SYELTQPPSVSVSPGQTARITCSGDALPKKYAYWYQQKSGQAPVLVIYEDSKRPSGIPERFSGSSSGTMATLTISGAQVEDEADYYCYSTDSSGNHCWVFGGGTKLTVL
notes: as for B1
For B9, in assay [5], the equilibrium dissociation constant (Kd) stood at 85 nM, the Response came out at 0.34, the koff is 0.0395 s⁻¹ and the kon was found to be 464000 M⁻¹ s⁻¹. In assay [2], the equilibrium dissociation constant (Kd) was 295 nM, the Response worked out at 0.1, the off-rate (koff) was determined as 0.25 s⁻¹ and the on-rate constant (kon) is 846000 M⁻¹ s⁻¹.

B10: ABL-CD3-52 (antibody, V domains shown)
VH: EVQLVESGGGLVKPGGSLRLSCAASGFTFSYYSMNWVRQAPGKGLEWVSSISRSTTYIYYADSVKGRFTISRDNAKNSLYLQMNSLRAEDTAVYYCARDGKGAIFLDYWGQGTLVTVSS
VL: SYELTQPPSVSVSPGQTARITCSGDALPKKYAYWYQQKSGQAPVLVIYEDSKRPSGIPERFSGSSSGTMATLTISGAQVEDEADYYCYSTDSSGNHRVFGGGTKLTVL
notes: as for B1
B10: in assay [1], the Kd stood at 54 nM, the Response is 0.35, the koff amounted to 0.0202 s⁻¹ and the association rate constant (kon) turned out to be 373000 M⁻¹ s⁻¹. In assay [3], the Kd is 233 nM, the Response came to 0.14, the off-rate (koff) was determined as 0.115 s⁻¹ and the kon stood at 495000 M⁻¹ s⁻¹.

B11: CD3 × CD33-BspAb65 (bispecific antibody)
scFv-Fc: NFMLTQPHSVSESPGKTVTIACTRSSGSIASNYVQWYQQRPGSSPTTVIYEDNQRPSGVPDRFSGSIDSSSNSASLTISGLKTEDEADYYCQSYDSSNQVFGCGTKLTVLGGGGSGGGGSGGGGSGGGGSQVTLKESGPGILQPSQTLSLTCSFSGFSLSTFGMGVGWIRQPSGKCLEWLAHIWWDDDKYYNPALKSRLTISKDTSKNQVFLKIANVDTADTATYYCARLGYYPYWFFDVWGTGTTVTVSSGGGGSDKTHTCPPCPAPEFEGGPSVFLFPPKPKDTLMISRTPEVTCVVVDVSHEDPEVKFNWYVDGVEVHNAKTKPREEQYNSTYRVVSVLTVLHQDWLNGKEYKCKVSNKALPASIEKTISKAKGQPREPQVYTLPPCREEMTKNQVSLWCLVKGFYPSDIAVEWESNGQPENNYKTTPPVLDSDGSFFLYSKLTVDKSRWQQGNVFSCSVMHEALHNHYTQKSLSLSPGK
heavy: EVQLVQSGAEVKKPGSSVKVSCKASGYTITDSNIHWVRQAPGQSLEWIGYIYPYNGGTDYNQKFKNRATLTVDNPTNTAYMELSSLRSEDTAFYYCVNGNPWLAYWGQGTLVTVSSASTKGPSVFPLAPSSKSTSGGTAALGCLVKDYFPEPVTVSWNSGALTSGVHTFPAVLQSSGLYSLSSVVTVPSSSLGTQTYICNVNHKPSNTKVDKRVEPKSCDKTHTCPPCPAPEFEGGPSVFLFPPKPKDTLMISRTPEVTCVVVDVSHEDPEVKFNWYVDGVEVHNAKTKPREEQYNSTYRVVSVLTVLHQDWLNGKEYKCKVSNKALPASIEKTISKAKGQPREPQVCTLPPSREEMTKNQVSLSCAVKGFYPSDIAVEWESNGQPENNYKTTPPVLDSDGSFFLVSKLTVDKSRWQQGNVFSCSVMHEALHNRFTQKSLSLSPGK
light: DIQLTQSPSTLSASVGDRVTITCRASESLDNYGIRFLTWFQQKPGKAPKLLMYAASNQGSGVPSRFSGSGSGTEFTLTISSLQPDDFATYYCQQTKEVPWSFGQGTKVEVKRTVAAPSVFIFPPSDEQLKSGTASVVCLLNNFYPREAKVQWKVDNALQSGNSQESVTEQDSKDSTYSLSSTLTLSKADYEKHKVYACEVTHQGLSSPVTKSFNRGEC
Consider B11, for which the flow cytometry signal with CD33 on KILR-HL60 cells [6] is 533000; in the assay with CD33 on KILR-HL60 cells [7] it was 605000.

For the origin of these results see US20260167721A1 (ABLEXIS, published 2026).
